From PMC4833211

Target: KirBac1.1 WT
Test: SEC

KirBac1.1 WT (natural protein)
stoichiometry N: 4
